Measurements published in the supplement of paper PMC10065799, “High-throughput profiling of sequence recognition by tyrosine kinases and SH2 domains using bacterial peptide display” (eLife, 2023).

Legend:
AncSZ = experiment: phosphorylation enrichment, bacterial display (enrichment ratio); higher = better substrate or ligand; peptides without Tyr show the background
EPHB1 = EPHB1 (UniProt P54762); experiment: as above
EPHB2 = EPHB2 (UniProt P29323); experiment: as above
FGFR1 = FGFR1 (UniProt P11362); experiment: as above
FGFR3 = FGFR3 (UniProt P22607); experiment: as above
Fer (mouse) = experiment: as above
Fes = Fes (UniProt P07332); experiment: as above
Fyn = Fyn (UniProt P06241); experiment: as above
Hck = Hck (UniProt P08631); experiment: as above
Jak2 = Jak2 (UniProt O60674); experiment: as above
MERTK = MERTK (UniProt Q12866); experiment: as above
c-Abl (mouse) = experiment: as above
c-Src = experiment: as above
Grb2 SH2 = Grb2 SH2 (UniProt P62993); experiment: SH2 binding enrichment of the phosphorylated peptide, bacterial display (enrichment ratio); higher = better substrate or ligand; peptides without Tyr show the background
SHP2-C SH2 = experiment: as above
c-Src SH2 = experiment: as above
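For SH2 binding enrichment of the phosphorylated peptide, bacterial display in this document: peptide library displayed on the E. coli surface as eCPX fusions, selected cells deep-sequenced, score is each peptide's frequency after selection divided by its frequency in the input.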
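For phosphorylation enrichment, bacterial display in this document: 11-residue human phosphosite peptides and single-mutation variants displayed on the E. coli surface, counted by deep sequencing, each peptide's frequency after selection divided by its frequency in the unselected input library; frequency after pTyr selection over input frequency; kinase dosed for 20-30% of maximal phosphorylation in three min.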

Sequence of FGFR1 (P11362 whole entry, looked up): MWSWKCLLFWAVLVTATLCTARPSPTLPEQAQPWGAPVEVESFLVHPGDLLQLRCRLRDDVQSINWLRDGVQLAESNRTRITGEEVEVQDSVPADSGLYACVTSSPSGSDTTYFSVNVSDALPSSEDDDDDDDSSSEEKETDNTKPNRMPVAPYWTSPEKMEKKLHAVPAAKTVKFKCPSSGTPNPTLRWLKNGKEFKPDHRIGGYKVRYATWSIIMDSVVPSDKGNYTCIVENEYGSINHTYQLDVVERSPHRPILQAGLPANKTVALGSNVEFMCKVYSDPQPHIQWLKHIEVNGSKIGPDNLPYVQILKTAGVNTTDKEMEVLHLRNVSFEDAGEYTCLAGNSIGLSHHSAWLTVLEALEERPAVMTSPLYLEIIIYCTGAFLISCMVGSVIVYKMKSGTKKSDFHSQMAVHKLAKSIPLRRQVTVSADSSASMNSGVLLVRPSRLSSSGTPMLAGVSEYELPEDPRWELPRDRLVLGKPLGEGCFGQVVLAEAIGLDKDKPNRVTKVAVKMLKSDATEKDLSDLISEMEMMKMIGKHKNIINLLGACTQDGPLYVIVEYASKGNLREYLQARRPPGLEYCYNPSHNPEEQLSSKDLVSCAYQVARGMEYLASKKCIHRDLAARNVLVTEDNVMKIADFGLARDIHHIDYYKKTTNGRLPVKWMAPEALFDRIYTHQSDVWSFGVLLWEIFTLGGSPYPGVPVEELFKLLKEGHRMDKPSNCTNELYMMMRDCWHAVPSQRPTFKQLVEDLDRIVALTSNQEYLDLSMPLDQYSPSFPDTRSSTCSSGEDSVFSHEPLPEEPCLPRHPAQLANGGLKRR
Sequence of Fes (P07332 whole entry, looked up): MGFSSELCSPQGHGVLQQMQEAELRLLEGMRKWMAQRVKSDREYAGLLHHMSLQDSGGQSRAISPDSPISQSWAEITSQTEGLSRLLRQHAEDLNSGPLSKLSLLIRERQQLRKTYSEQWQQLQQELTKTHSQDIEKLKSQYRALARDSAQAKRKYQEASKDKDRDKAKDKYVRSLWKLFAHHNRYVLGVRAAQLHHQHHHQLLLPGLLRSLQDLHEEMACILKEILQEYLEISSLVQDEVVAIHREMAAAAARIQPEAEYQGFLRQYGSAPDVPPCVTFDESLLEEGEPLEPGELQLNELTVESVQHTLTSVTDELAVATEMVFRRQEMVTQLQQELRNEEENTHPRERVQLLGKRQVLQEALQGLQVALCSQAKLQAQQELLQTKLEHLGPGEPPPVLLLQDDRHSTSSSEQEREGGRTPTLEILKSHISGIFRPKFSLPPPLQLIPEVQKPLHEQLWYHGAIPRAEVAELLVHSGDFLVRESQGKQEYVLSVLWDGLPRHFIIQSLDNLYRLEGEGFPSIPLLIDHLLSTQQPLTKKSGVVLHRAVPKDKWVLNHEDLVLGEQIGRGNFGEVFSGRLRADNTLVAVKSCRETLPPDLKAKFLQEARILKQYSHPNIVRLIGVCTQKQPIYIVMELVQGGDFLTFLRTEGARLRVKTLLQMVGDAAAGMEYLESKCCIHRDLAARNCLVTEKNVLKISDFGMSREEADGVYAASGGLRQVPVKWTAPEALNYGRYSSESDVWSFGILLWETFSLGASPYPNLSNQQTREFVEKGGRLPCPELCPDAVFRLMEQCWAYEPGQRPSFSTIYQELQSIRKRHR
Sequence of Grb2 SH2 (P62993 whole entry, looked up): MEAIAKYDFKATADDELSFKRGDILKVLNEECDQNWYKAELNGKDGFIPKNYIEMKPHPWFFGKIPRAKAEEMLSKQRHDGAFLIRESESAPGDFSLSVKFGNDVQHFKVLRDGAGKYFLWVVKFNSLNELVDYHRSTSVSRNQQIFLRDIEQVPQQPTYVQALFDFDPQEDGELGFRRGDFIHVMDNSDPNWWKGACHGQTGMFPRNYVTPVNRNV
Sequence of Jak2 (O60674 whole entry, looked up): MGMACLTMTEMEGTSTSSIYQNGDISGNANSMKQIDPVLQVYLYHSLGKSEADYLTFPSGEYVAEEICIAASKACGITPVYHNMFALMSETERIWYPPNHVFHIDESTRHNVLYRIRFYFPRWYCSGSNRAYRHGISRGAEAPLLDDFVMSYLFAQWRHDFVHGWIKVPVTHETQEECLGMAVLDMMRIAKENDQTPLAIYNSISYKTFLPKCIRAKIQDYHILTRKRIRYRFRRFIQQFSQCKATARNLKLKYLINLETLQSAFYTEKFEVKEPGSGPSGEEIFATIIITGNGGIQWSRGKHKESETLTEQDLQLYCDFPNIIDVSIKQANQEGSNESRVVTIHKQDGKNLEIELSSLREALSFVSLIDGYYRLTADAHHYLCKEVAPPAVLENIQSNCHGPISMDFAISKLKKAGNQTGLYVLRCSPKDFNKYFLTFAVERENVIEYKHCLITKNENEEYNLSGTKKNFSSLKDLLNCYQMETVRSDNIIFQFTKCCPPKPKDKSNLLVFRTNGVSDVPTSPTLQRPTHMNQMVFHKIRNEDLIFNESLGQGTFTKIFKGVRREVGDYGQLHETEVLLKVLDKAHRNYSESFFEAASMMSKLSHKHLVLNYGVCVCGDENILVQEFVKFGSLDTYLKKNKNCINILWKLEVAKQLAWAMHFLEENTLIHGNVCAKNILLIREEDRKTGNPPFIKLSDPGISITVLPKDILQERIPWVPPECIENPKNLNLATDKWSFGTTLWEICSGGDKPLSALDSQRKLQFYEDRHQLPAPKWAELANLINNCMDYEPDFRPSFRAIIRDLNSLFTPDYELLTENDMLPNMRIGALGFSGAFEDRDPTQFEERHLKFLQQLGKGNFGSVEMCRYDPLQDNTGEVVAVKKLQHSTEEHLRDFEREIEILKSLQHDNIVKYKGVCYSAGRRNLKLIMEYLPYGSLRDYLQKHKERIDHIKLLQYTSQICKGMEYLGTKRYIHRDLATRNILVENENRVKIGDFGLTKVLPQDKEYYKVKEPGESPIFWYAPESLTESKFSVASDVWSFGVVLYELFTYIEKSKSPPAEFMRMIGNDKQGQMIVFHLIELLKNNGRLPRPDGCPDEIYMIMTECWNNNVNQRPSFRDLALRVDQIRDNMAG
Sequence of EPHB1 (P54762 whole entry, looked up): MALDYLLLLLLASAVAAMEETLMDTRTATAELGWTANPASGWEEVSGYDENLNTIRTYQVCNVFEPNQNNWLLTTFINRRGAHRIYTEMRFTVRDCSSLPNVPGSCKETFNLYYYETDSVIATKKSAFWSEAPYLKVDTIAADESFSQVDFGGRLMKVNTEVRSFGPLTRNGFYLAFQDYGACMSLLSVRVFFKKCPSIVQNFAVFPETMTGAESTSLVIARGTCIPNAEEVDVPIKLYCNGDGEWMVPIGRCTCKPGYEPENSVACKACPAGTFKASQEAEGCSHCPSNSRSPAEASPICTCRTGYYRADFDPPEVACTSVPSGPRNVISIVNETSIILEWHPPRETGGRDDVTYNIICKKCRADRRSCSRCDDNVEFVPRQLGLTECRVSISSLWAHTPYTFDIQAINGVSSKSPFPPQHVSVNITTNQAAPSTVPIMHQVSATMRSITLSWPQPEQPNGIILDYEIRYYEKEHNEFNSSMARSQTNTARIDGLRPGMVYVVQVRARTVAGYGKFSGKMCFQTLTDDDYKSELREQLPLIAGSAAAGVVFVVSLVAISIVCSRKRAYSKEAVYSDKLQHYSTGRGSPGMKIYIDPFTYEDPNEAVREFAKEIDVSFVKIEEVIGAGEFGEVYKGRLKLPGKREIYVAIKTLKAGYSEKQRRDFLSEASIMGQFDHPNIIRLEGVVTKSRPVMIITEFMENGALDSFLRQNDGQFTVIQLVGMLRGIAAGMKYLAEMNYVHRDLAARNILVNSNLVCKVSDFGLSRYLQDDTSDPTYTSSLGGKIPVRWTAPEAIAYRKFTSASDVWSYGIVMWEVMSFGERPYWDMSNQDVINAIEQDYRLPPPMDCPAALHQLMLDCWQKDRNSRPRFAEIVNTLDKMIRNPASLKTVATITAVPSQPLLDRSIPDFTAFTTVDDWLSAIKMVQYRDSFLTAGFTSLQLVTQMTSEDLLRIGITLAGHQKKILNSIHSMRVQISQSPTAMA
Sequence of Hck (P08631 whole entry, looked up): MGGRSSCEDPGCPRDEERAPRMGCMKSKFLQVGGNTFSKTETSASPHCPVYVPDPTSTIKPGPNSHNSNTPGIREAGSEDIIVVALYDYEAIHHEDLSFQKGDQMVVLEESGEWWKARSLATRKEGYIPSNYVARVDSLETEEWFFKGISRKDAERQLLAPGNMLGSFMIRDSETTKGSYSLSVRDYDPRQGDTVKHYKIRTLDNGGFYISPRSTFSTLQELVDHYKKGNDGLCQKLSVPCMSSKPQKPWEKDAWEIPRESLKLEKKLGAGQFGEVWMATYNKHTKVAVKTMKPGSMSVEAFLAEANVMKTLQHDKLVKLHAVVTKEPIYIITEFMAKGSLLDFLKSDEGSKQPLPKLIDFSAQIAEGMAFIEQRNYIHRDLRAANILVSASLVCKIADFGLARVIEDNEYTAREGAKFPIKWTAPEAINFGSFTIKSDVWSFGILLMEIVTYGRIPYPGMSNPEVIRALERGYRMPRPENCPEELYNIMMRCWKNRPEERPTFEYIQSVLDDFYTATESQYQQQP
Sequence of Fyn (P06241 whole entry, looked up): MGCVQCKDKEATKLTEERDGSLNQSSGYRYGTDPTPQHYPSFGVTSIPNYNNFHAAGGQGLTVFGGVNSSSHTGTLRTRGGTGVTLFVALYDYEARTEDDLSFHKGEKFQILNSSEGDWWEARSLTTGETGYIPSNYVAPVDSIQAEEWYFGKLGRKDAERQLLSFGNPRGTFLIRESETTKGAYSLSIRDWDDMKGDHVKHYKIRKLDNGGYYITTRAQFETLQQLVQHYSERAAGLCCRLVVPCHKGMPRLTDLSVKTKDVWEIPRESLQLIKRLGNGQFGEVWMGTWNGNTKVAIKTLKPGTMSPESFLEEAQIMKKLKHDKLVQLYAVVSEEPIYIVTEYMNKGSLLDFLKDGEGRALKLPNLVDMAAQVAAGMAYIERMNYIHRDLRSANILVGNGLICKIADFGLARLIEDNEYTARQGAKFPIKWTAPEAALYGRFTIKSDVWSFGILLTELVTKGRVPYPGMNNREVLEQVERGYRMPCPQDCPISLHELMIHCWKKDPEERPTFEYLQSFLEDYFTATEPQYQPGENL

| Sequence | phosphorylation enrichment (AncSZ) | phosphorylation enrichment (EPHB1) | phosphorylation enrichment (EPHB2) | phosphorylation enrichment (FGFR1) | phosphorylation enrichment (FGFR3) | phosphorylation enrichment (Fer (mouse)) | phosphorylation enrichment (Fes) | phosphorylation enrichment (Fyn) | phosphorylation enrichment (Hck) | phosphorylation enrichment (Jak2) | phosphorylation enrichment (MERTK) | phosphorylation enrichment (c-Abl (mouse)) | phosphorylation enrichment (c-Src) | SH2 binding enrichment (Grb2 SH2) | SH2 binding enrichment (SHP2-C SH2) | SH2 binding enrichment (c-Src SH2) |
| --- | --- | --- | --- | --- | --- | --- | --- | --- | --- | --- | --- | --- | --- | --- | --- | --- |
| MEYLPYGSLRD [JAK2_Y934] | 1.45 | 2.63 | 1.41 | 1.15 | 1.02 | 1.25 | 1.26 | 4.56 | 5.07 | 1.41 | 0.511 | 1.02 | 4.9 | 0.723 | 1.19 | 0.498 |
| MGSYNYLGFAR [SPTLC2_Y178] | 0.831 | 2.42 | 0.949 | 1.3 | 1.04 | 0.707 | 1.05 | 0.758 | 2.99 | 2.89 | 6.56 | 0.956 | 1.1 | 0.804 | 3.37 | 2.54 |
| MHRRQYELLGG [GNAS_Y391_L388R] | 0.577 | 0.28 | 0.426 | 0.5 | 0.425 | 0.307 | 0.715 | 0.371 | 0.409 | 0.48 | 0.391 | 0.416 | 0.336 | 0.601 | 0.349 | 2.1 |
| MKKKTYAMGGG [GAN_Y424_I423T] | 0.705 | 0.857 | 1.09 | 0.653 | 0.531 | 0.567 | 0.862 | 0.428 | 0.908 | 0.865 | 0.578 | 0.761 | 1 | 0.728 | 0.233 | 0.438 |
| MKKMHYVDPDH [ST3GAL5_Y99] | 0.512 | 0.32 | 0.311 | 0.338 | 0.357 | 0.32 | 0.513 | 0.364 | 0.367 | 0.392 | 0.332 | 0.41 | 0.402 | 0.9 | 0.672 | 0.548 |
| MNLLGYRQVRS [CHST4_Y359_H361Q] | 0.693 | 0.439 | 0.448 | 0.399 | 0.614 | 0.359 | 0.72 | 0.468 | 0.45 | 0.566 | 0.438 | 0.679 | 0.411 | 0.686 | 0.481 | 0.515 |
| MSLRSYGSREG [APC_Y96] | 0.723 | 0.416 | 0.42 | 0.373 | 0.414 | 0.413 | 0.586 | 0.398 | 0.387 | 0.451 | 0.418 | 0.491 | 0.458 | 0.763 | 0.409 | 0.453 |
| MSNFAYVKREV [SCN1A_Y1694] | 0.729 | 0.457 | 0.437 | 0.447 | 0.61 | 0.419 | 0.986 | 0.418 | 0.552 | 0.651 | 0.471 | 0.516 | 0.388 | 0.797 | 0.7 | 0.466 |
| MTFVFYRENLR [NLRP14_Y443_YF] | 1.42 | 0.585 | 0.719 | 0.562 | 0.927 | 0.576 | 1.34 | 0.48 | 0.525 | 1.13 | 0.369 | 0.668 | 0.288 | 1.34 | 1.14 | 0.716 |
| MTKEQYIKMNQ [ARFGEF2_Y797_R802Q] | 0.662 | 0.38 | 0.575 | 0.687 | 0.637 | 0.399 | 0.805 | 0.347 | 0.443 | 0.706 | 0.381 | 0.665 | 0.341 | 0.968 | 0.487 | 0.517 |
| MVTSGYKAKTI [EFR3A_Y447] | 0.413 | 0.337 | 0.312 | 0.299 | 0.375 | 0.314 | 0.458 | 0.361 | 0.322 | 0.364 | 0.377 | 0.42 | 0.292 | 0.748 | 0.744 | 0.44 |
| NFADPYRQLPF [CTNND2_Y503_Q507P_YF] | 0.732 | 0.432 | 0.58 | 0.661 | 0.652 | 0.46 | 0.728 | 0.587 | 0.659 | 0.62 | 0.417 | 0.638 | 0.642 | 0.728 | 0.817 | 0.612 |
| NFAKMYCNPDA [KNL1_Y489_YF] | 0.942 | 0.502 | 0.706 | 0.569 | 0.636 | 0.517 | 1.02 | 0.569 | 0.572 | 0.766 | 0.536 | 0.836 | 0.538 | 0.789 | 0.633 | 2.03 |
| NFDRIYIYHLR [MYOF_Y1137_V1136I] | 1.17 | 0.701 | 0.648 | 0.548 | 0.787 | 0.611 | 1.2 | 0.732 | 0.742 | 1.1 | 0.63 | 0.734 | 0.923 | 1.39 | 6.21 | 1.03 |
| NFFDTYIKTCL [IQGAP2_Y1445_YF] | 1.3 | 0.736 | 0.731 | 0.508 | 0.815 | 0.555 | 1.34 | 0.456 | 0.587 | 1.34 | 0.496 | 0.843 | 0.54 | 0.85 | 0.752 | 0.528 |
| NHFKIYNPCAE [PTEN_Y68_L70P_YF] | 0.816 | 0.494 | 0.518 | 0.458 | 0.676 | 0.442 | 0.996 | 0.564 | 0.56 | 0.807 | 0.452 | 0.809 | 0.474 | 0.901 | 0.798 | 0.752 |
| NIEPIYLNMLL [ATR_Y317_V316I] | 1.85 | 13.8 | 14.5 | 10.7 | 7.79 | 13.3 | 3.2 | 8.37 | 6.92 | 1.42 | 6.85 | 15.1 | 6.6 | 0.705 | 0.63 | 0.424 |

| Sequence | phosphorylation enrichment (AncSZ) | phosphorylation enrichment (EPHB1) | phosphorylation enrichment (EPHB2) | phosphorylation enrichment (FGFR1) | phosphorylation enrichment (FGFR3) | phosphorylation enrichment (Fer (mouse)) | phosphorylation enrichment (Fes) | phosphorylation enrichment (Fyn) | phosphorylation enrichment (Hck) | phosphorylation enrichment (Jak2) | phosphorylation enrichment (MERTK) | phosphorylation enrichment (c-Abl (mouse)) | phosphorylation enrichment (c-Src) | SH2 binding enrichment (Grb2 SH2) | SH2 binding enrichment (SHP2-C SH2) | SH2 binding enrichment (c-Src SH2) |
| --- | --- | --- | --- | --- | --- | --- | --- | --- | --- | --- | --- | --- | --- | --- | --- | --- |
| NIFSFYLSRDP [CTSD_Y232] | 0.85 | 0.551 | 0.506 | 0.348 | 0.697 | 0.528 | 1.14 | 0.4 | 0.461 | 0.951 | 0.333 | 0.619 | 0.409 | 1.52 | 1.64 | 1.09 |
| NKFTTYLPRLP [C9orf24_Y126_YF] | 0.568 | 0.437 | 0.445 | 0.47 | 0.503 | 0.36 | 0.784 | 0.477 | 0.507 | 0.666 | 0.42 | 0.482 | 0.425 | 0.927 | 1.02 | 0.824 |
| NLNGKYNKPRA [ANGPTL3_Y417] | 0.51 | 0.294 | 0.353 | 0.344 | 0.525 | 0.372 | 0.613 | 0.659 | 0.362 | 0.8 | 0.471 | 0.696 | 0.334 | 1.3 | 0.875 | 1.18 |
| NPQKSYLIRLF [WAS_Y83_F84L_YF] | 0.768 | 0.462 | 0.484 | 0.439 | 0.696 | 0.448 | 0.957 | 0.398 | 0.407 | 0.681 | 0.413 | 0.523 | 0.38 | 1.03 | 0.822 | 0.672 |
| NRLTDYFELLL [BBS10_Y536_P539L_YF] | 1.36 | 0.654 | 0.633 | 7.17 | 5 | 0.534 | 1.31 | 0.622 | 0.509 | 1.35 | 0.442 | 0.765 | 0.619 | 1.33 | 1.29 | 0.834 |
| NSIGNYYKPWF [DHCR24_Y299] | 1.14 | 14.5 | 15.2 | 5.3 | 4.33 | 0.52 | 0.774 | 0.568 | 1 | 9.63 | 8.27 | 14.1 | 0.69 | 1.14 | 2.39 | 1.09 |
| NSNSDYVDVLP [SH2D1B_Y127] | 2.46 | 4.08 | 2.82 | 3.73 | 2.95 | 0.884 | 1.33 | 0.628 | 0.735 | 1.11 | 0.54 | 0.743 | 0.598 | 0.835 | 0.43 | 0.485 |
| NVADHYRVFKP [ATP6V0D2_Y271_G272R_YF] | 0.708 | 0.404 | 0.361 | 0.459 | 0.608 | 0.404 | 0.616 | 0.391 | 0.418 | 0.582 | 0.644 | 0.686 | 0.471 | 0.842 | 0.624 | 0.397 |
| NVKGIYAVGDV [GSR_Y371] | 0.714 | 0.619 | 0.564 | 0.521 | 0.574 | 0.572 | 0.865 | 4.37 | 3.55 | 0.66 | 1.31 | 1.44 | 3.73 | 0.741 | 0.738 | 0.533 |
| PADQAYSWFQH [NDST1_Y711_R709Q_YF] | 1.7 | 1.3 | 0.926 | 5.17 | 4.33 | 26.6 | 2.91 | 1.38 | 1.36 | 0.855 | 7.11 | 0.58 | 2.41 | 0.648 | 1.01 | 0.891 |
| PADRAYSWFQH [NDST1_Y711_YF] | 1.14 | 0.543 | 0.67 | 1.84 | 1.14 | 17.8 | 1.43 | 0.833 | 0.466 | 1.03 | 4.22 | 0.645 | 0.868 | 0.949 | 0.572 | 0.976 |
| PANMVYSTVEI [SLAMF7_Y304_T302M] | 1.38 | 3.27 | 3.32 | 2.6 | 2.26 | 20.3 | 1.77 | 10.6 | 9.3 | 0.659 | 8.74 | 6.82 | 8.24 | 0.699 | 0.546 | 0.833 |
| PATYTYDEYKK [COL8A2_Y648] | 1.43 | 0.745 | 0.883 | 0.749 | 0.728 | 0.558 | 1.3 | 1.67 | 1.55 | 0.868 | 1.02 | 1.38 | 3.07 | 0.551 | 0.799 | 1.48 |
| PDGVEYLKNNP [GRIN3A_Y831_D835N] | 1.21 | 0.527 | 0.452 | 0.503 | 0.769 | 0.499 | 1.05 | 0.543 | 0.664 | 1.31 | 0.546 | 0.748 | 0.539 | 0.982 | 0.849 | 0.348 |
| PESIMYWKFTT [NTRK3_Y744_R745W] | 2.52 | 0.92 | 1.22 | 1.09 | 1.55 | 1.53 | 2.81 | 1.85 | 1.96 | 2.76 | 0.851 | 2.36 | 3.1 | 0.767 | 1.21 | 0.487 |
| PEVRRCVLPLN [RPE65_Y368_Y368C] | 0.906 | 0.673 | 0.487 | 0.495 | 0.774 | 0.644 | 1.14 | 0.366 | 0.48 | 0.927 | 0.458 | 0.871 | 0.586 | 0.926 | 0.633 | 0.548 |
